This note sets out measurements from patent US20200164059A1 (FRED HUTCHINSON CANCER RESEARCH CENTER, published 2020).

Experiment [1] addresses T1, EBV gH/gL heterodimer, recombinant ectodomain (Epstein Barr virus).
T1 construct: range 19-679;range 24-137
Briefly: BLI kinetics, pH 5.0, ligand AMMO1 Mab, analyte gH/gL; koff (1/s) x10^-3. For orientation: In BLI a coated tip is dipped into the sample, and binding shifts an interference pattern.

In experiment [2] the target is T1, EBV gH/gL heterodimer, recombinant …. Briefly: BLI kinetics, pH 7.4, ligand AMMO1 Mab, analyte gH/gL; KA M^-1 x10^7.
The target of experiment [3] is gH T62A/gL, recombinant ectodomain (Epstein Barr virus).
Experiment [4] concerns the target T1, EBV gH/gL heterodimer, recombinant …. Briefly: BLI kinetics, pH 5.0, ligand AMMO1 Mab, analyte gH/gL; KA M^-1 x10^7.
Experiment [5] shares this target. Briefly: BLI kinetics, pH 7.4, ligand AMMO1 Mab, analyte gH/gL; KD M x10^-9.
The next experiment concerns the target gH/gL on EBV virions (Epstein Barr virus, UniProt P03231 19-706; P03212 23-137). Kind of experiment: cell-based or functional assay.
For experiment [6], the target named is T1, EBV gH/gL heterodimer, recombinant …. Kind of experiment: BLI kinetics, pH 7.4, ligand AMMO1 Mab, analyte gH/gL; koff (1/s) x10^-3.
The target is the same in experiment [7]. Kind of experiment: BLI kinetics, pH 5.0, ligand AMMO1 Mab, analyte gH/gL; kon (1/Ms) x10^5.
Experiment [8] has the same target. Briefly: BLI kinetics, pH 7.4, ligand AMMO1 Mab, analyte gH/gL; kon (1/Ms) x10^5.
Experiment [9] shares this target. Kind of experiment: BLI kinetics, pH 5.0, ligand AMMO1 Mab, analyte gH/gL; KD M x10^-9.

A word on the koff: it is the rate constant with which the complex falls apart. What is called Kd is the concentration at which binding is half-saturated. As a reminder, the kon is a measure of how fast the partners come together.

B1: AMMO1 (antibody, V domains shown)
VH: QVQLVQSGADVKKPGASVKVSCKASGYTFIHFGISWVRQAPGQGLEWMGWIDTNNGNTNYAQSLQGRVTMTTDTSTGTAYMELRSLSTDDTAVYFCARALEMGHRSGFPFDYWGQGVLVTVSP
VL: SYELTQPPSVSVAPGQRATITCGGHNIGAKNVHWYQQKPGQAPVLVIQYDSDRPSGIPERFSGSNSGSTATLTISRVEAGDEADYYCQVWDSGRGHPLYVFGGGTKVTVL
notes: also called WT AMMO1; anti-gH/gL MAb AMMO1
With B1, the values for the koff in [1], in [3] and in [6] were 7.31e-05 s⁻¹, 0.000135 s⁻¹ and 3.87e-05 s⁻¹, respectively. For the same molecule, the values for the Ka in [2], in [3] and in experiment [4] were 8.63e+09 M⁻¹, 5.85e+09 M⁻¹ and 7.84e+09 M⁻¹, respectively. For the same molecule, the Kd in [3] was determined as 0.17 nM; in experiment [5], 0.12 nM; in experiment [9], 0.13 nM. Further, the kon in experiment [3] came to 789000 M⁻¹ s⁻¹; in [7] it was 573000 M⁻¹ s⁻¹; in experiment [8] it was 334000 M⁻¹ s⁻¹. Further, the “neutralization of B95.8/F EBV infection of B (Raji) cells, IC50” value with gH/gL on EBV virions was 0.16 µg/mL.
